Reference: patent publication US20030017160

T1: GST-Cdc25C, P30307
T1 chain: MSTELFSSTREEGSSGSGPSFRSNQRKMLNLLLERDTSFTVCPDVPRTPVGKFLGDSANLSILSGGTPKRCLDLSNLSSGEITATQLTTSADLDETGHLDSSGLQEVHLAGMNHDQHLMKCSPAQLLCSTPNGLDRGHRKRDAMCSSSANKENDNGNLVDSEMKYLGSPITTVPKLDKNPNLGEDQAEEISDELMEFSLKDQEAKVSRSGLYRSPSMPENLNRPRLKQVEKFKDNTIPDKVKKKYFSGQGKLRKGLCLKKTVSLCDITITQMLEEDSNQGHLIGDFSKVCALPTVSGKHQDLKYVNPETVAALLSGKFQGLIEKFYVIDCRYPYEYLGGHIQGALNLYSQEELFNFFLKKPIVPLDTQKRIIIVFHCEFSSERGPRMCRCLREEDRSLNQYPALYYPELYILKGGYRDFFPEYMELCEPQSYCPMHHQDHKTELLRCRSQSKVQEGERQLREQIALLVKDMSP

B1: 6his-Chk1 (protein)
chain: MAVPFVEDWDLVQTLGEGAYGEVQLAVNRVTEEAVAVKIVDMKRAVDCPENIKKEICINKMLNHENVVKFYGHRREGNIQYLFLEYCSGGELFDRIEPDIGMPEPDAQRFFHQLMAGVVYLHGIGITHRDIKPENLLLDERDNLKISDFGLATVFRYNNRERLLNKMCGTLPYVAPELLKRREFHAEPVDVWSCGIVLTAMLAGELPWDQPSDSCQEYSDWKEKKTYLNPWKKIDSAPLALLHKILVENPSARITIPDIKKDRWYNKPLKKGAKRPRVTSGGVSESPSGFSKHIQSNLDFSPVNSASSEENVKYSSSQPEPRTGLSLWDTSPSYIDKLVQGISFSQPTCPDHMLLNSQLLGTPGSSQNPWQRLVKRMTRFFTKLDADKSYQCLKETCEKLGYQWKKSCMNQVTISTTDRRNNKLIFKVNLLEMDDKILVDFRLSKGDGLEFKRHFLKIKGKLIDIVSSQKIWLPAT
B2: GST-Cdc25C (protein)
chain: T1 chain

Columns and labels:
[1] = target: T1, GST-Cdc25C, P30307
[2] = target: 6his-Cdc2, P06493
6his-Cdc2, P06493, sequence (P06493 whole entry, looked up): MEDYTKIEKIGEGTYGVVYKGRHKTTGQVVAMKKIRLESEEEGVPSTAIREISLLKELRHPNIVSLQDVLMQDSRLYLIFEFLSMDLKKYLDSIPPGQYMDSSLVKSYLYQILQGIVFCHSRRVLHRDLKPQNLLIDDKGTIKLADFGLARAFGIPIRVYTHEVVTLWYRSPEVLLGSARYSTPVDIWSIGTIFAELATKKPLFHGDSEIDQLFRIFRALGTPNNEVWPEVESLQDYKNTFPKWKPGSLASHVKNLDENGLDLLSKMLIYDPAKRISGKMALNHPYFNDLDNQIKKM

Protein	GST-Cdc25 phosphatase activity (loss of the slower migrating phosphorylated forms of Cdc2 on gel) [1]	phosphorylation with gamma-32P ATP, SDS-PAGE and autoradiography [1]	Cdc2 dephosphorylation by gel-mobility analysis [2]
B1	Prior phosphorylation of GST-Cdc25 by 6his-Chk1 leads to a dose-dependent reduction in GST-Cdc25 activity	GST-Cdc25 was phosphorylated by 6his-Chk1 and by 6his-hCDS1	
B2			GST-Cdc25 catalyses a reduction in the slower migrating phosphorylated forms of Cdc2
